# B1: Protein LYRIC (Homo sapiens), Q86UE4 (parent)
# chain: MAARSWQDELAQQAEEGSARLREMLSVGLGFLRTELGLDLGLEPKRYPGWVILVGTGALGLLLLFLLGYGWAAACAGARKKRRSPPRKREEAAAVPAAAPDDLALLKNLRSEEQKKKNRKKLSEKPKPNGRTVEVAEGEAVRTPQSVTAKQPPEIDKKNEKSKKNKKKSKSDAKAVQNSSRHDGKEVDEGAWETKISHREKRQQRKRDKVLTDSGSLDSTIPGIENTITVTTEQLTTASFPVGSKKNKGDSHLNVQVSNFKSGKGDSTLQVSSGLNENLTVNGGGWNEKSVKLSSQISAGEEKWNSVSPASAGKRKTEPSAWSQDTGDANTNGKDWGRSWSDRSIFSGIGSTAEPVSQSTTSDYQWDVSRNQPYIDDEWSGLNGLSSADPNSDWNAPAEEWGNWVDEERASLLKSQEPIPDDQKVSDDDKEKGEGALPTGKSKKKKKKKKKQGEDNSTAQDTEELEKEIREDLPVNTSKTRPKQEKAFSLKTISTSDPAEVLVKNSQPIKTLPPATSTEPSVILSKSDSDKSSSQVPPILQETDKSKSNTKQNSVPPSQTKSETSWESPKQIKKKKKARRET
# Variants of: B1
# Conditions: with snd1_human SND1, Q7KZF4
# snd1_human SND1, Q7KZF4, sequence (Q7KZF4 whole entry): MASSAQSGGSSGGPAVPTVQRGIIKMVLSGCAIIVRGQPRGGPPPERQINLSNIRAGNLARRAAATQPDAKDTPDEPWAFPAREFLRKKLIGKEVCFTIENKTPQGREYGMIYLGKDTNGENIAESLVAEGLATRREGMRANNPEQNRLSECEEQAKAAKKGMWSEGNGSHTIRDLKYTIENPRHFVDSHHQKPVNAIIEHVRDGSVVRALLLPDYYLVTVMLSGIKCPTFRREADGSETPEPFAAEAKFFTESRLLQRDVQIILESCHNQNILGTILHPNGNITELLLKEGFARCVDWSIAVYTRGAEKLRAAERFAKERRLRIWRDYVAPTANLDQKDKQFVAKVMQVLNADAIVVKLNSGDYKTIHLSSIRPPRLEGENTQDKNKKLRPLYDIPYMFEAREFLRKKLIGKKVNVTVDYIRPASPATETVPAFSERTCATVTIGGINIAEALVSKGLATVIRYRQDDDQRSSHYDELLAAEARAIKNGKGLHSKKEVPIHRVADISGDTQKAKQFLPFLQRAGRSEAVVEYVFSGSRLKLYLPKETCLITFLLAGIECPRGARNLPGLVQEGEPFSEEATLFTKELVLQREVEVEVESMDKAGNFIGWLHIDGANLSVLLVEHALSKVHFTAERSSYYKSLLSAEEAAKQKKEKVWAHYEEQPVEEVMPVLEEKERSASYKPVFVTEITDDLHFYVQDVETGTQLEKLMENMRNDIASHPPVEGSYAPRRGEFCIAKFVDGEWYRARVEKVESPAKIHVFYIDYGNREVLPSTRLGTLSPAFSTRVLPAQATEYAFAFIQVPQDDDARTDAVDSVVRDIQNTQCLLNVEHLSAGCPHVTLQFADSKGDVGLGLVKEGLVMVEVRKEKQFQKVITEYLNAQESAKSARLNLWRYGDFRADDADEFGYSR
row,effect of a mutation on the interaction,Variant
1,disrupting interaction strength,MAARSWQDELAQQAEEGSARLREMLSVGLGFLRTELGLDLGLEPKRYPGWVILVGTGALGLLLLFLLGYGWAAACAGARKKRRSPPRKREEAAAVPAAAPDDLALLKNLRSEEQKKKNRKKLSEKPKPNGRTVEVAEGEAVRTPQSVTAKQPPEIDKKNEKSKKNKKKSKSDAKAVQNSSRHDGKEVDEGAWETKISHREKRQQRKRDKVLTDSGSLDSTIPGIENTITVTTEQLTTASFPVGSKKNKGDSHLNVQVSNFKSGKGDSTLQVSSGLNENLTVNGGGWNEKSVKLSSQISAGEEKWNSVSPASAGKRKTEPSAWSQDTGDANTNGKDWGRSWSDRSIFSGIGSTAEPVSQSTTSDYQWDVSRNQPYIDDEWSGLNGLSSADPNSDWNAPARRDGNWVDEERASLLKSQEPIPDDQKVSDDDKEKGEGALPTGKSKKKKKKKKKQGEDNSTAQDTEELEKEIREDLPVNTSKTRPKQEKAFSLKTISTSDPAEVLVKNSQPIKTLPPATSTEPSVILSKSDSDKSSSQVPPILQETDKSKSNTKQNSVPPSQTKSETSWESPKQIKKKKKARRET [E399R;E400R;W401D]
2,decreasing interaction strength,MAARSWQDELAQQAEEGSARLREMLSVGLGFLRTELGLDLGLEPKRYPGWVILVGTGALGLLLLFLLGYGWAAACAGARKKRRSPPRKREEAAAVPAAAPDDLALLKNLRSEEQKKKNRKKLSEKPKPNGRTVEVAEGEAVRTPQSVTAKQPPEIDKKNEKSKKNKKKSKSDAKAVQNSSRHDGKEVDEGAWETKISHREKRQQRKRDKVLTDSGSLDSTIPGIENTITVTTEQLTTASFPVGSKKNKGDSHLNVQVSNFKSGKGDSTLQVSSGLNENLTVNGGGWNEKSVKLSSQISAGEEKWNSVSPASAGKRKTEPSAWSQDTGDANTNGKDWGRSWSDRSIFSGIGSTAEPVSQSTTSDYQWDVSRNQPYIDDEWSGLNGLSSADPNSDWNAPAEEDGNWVDEERASLLKSQEPIPDDQKVSDDDKEKGEGALPTGKSKKKKKKKKKQGEDNSTAQDTEELEKEIREDLPVNTSKTRPKQEKAFSLKTISTSDPAEVLVKNSQPIKTLPPATSTEPSVILSKSDSDKSSSQVPPILQETDKSKSNTKQNSVPPSQTKSETSWESPKQIKKKKKARRET [W401D]
3,disrupting interaction strength,MAARSWQDELAQQAEEGSARLREMLSVGLGFLRTELGLDLGLEPKRYPGWVILVGTGALGLLLLFLLGYGWAAACAGARKKRRSPPRKREEAAAVPAAAPDDLALLKNLRSEEQKKKNRKKLSEKPKPNGRTVEVAEGEAVRTPQSVTAKQPPEIDKKNEKSKKNKKKSKSDAKAVQNSSRHDGKEVDEGAWETKISHREKRQQRKRDKVLTDSGSLDSTIPGIENTITVTTEQLTTASFPVGSKKNKGDSHLNVQVSNFKSGKGDSTLQVSSGLNENLTVNGGGWNEKSVKLSSQISAGEEKWNSVSPASAGKRKTEPSAWSQDTGDANTNGKDWGRSWSDRSIFSGIGSTAEPVSQSTTSDYQWDVSRNQPYIDDEWSGLNGLSSADPNSDDNAPAEEWGNWVDEERASLLKSQEPIPDDQKVSDDDKEKGEGALPTGKSKKKKKKKKKQGEDNSTAQDTEELEKEIREDLPVNTSKTRPKQEKAFSLKTISTSDPAEVLVKNSQPIKTLPPATSTEPSVILSKSDSDKSSSQVPPILQETDKSKSNTKQNSVPPSQTKSETSWESPKQIKKKKKARRET [W394D]
4,disrupting interaction strength,MAARSWQDELAQQAEEGSARLREMLSVGLGFLRTELGLDLGLEPKRYPGWVILVGTGALGLLLLFLLGYGWAAACAGARKKRRSPPRKREEAAAVPAAAPDDLALLKNLRSEEQKKKNRKKLSEKPKPNGRTVEVAEGEAVRTPQSVTAKQPPEIDKKNEKSKKNKKKSKSDAKAVQNSSRHDGKEVDEGAWETKISHREKRQQRKRDKVLTDSGSLDSTIPGIENTITVTTEQLTTASFPVGSKKNKGDSHLNVQVSNFKSGKGDSTLQVSSGLNENLTVNGGGWNEKSVKLSSQISAGEEKWNSVSPASAGKRKTEPSAWSQDTGDANTNGKDWGRSWSDRSIFSGIGSTAEPVSQSTTSDYQWDVSRNQPYIDDEWSGLNGLSSARPNSRDNAPAEEWGNWVDEERASLLKSQEPIPDDQKVSDDDKEKGEGALPTGKSKKKKKKKKKQGEDNSTAQDTEELEKEIREDLPVNTSKTRPKQEKAFSLKTISTSDPAEVLVKNSQPIKTLPPATSTEPSVILSKSDSDKSSSQVPPILQETDKSKSNTKQNSVPPSQTKSETSWESPKQIKKKKKARRET [D389R;D393R;W394D]

# Variants of: B1
# Conditions: with snd1_human SND1, Q7KZF4
# Remark: another data set of the same source
row,effect of a mutation on the interaction,Variant
1,disrupting interaction strength,MAARSWQDELAQQAEEGSARLREMLSVGLGFLRTELGLDLGLEPKRYPGWVILVGTGALGLLLLFLLGYGWAAACAGARKKRRSPPRKREEAAAVPAAAPDDLALLKNLRSEEQKKKNRKKLSEKPKPNGRTVEVAEGEAVRTPQSVTAKQPPEIDKKNEKSKKNKKKSKSDAKAVQNSSRHDGKEVDEGAWETKISHREKRQQRKRDKVLTDSGSLDSTIPGIENTITVTTEQLTTASFPVGSKKNKGDSHLNVQVSNFKSGKGDSTLQVSSGLNENLTVNGGGWNEKSVKLSSQISAGEEKWNSVSPASAGKRKTEPSAWSQDTGDANTNGKDWGRSWSDRSIFSGIGSTAEPVSQSTTSDYQWDVSRNQPYIDDEWSGLNGLSSARPNSRDNAPAEEWGNWVDEERASLLKSQEPIPDDQKVSDDDKEKGEGALPTGKSKKKKKKKKKQGEDNSTAQDTEELEKEIREDLPVNTSKTRPKQEKAFSLKTISTSDPAEVLVKNSQPIKTLPPATSTEPSVILSKSDSDKSSSQVPPILQETDKSKSNTKQNSVPPSQTKSETSWESPKQIKKKKKARRET [D389R;D393R;W394D]

# Source: IntAct's records for PubMed 24981741
